Changes are numbered by the printed parent chain. In names and notes the source's numbering stands.
Assays:
[1] = molecular target: T1, human serum albumin (human, UniProt P02768 25-609); assay: SPR (Biacore 3000), HSA amine-coupled on CM5 chip, pH 6.0, no VHH
T1 construct: also called HSA; human albumin

[2] = molecular target: T1, human serum albumin; assay: SPR (Biacore 3000), biotinylated albumin on CAP chip, pH 6.0
Description: (§1) Biotinylated albumin was captured onto a CAP chip saturated with Biotin CAPture reagent containing deoxyribooligonucleotides (obtained from GE Healthcare). Concentrations of purified VHH domains were injected for 5 minutes at a flowrate of 50 μL/min. Three concentrations were assessed per VHH domain. Bound analyte was allowed to dissociate for 600 seconds. The chip surface was regenerated after each concentration by injecting 6 M guanidine HCl/0.25 M NaOH for 2 minutes at 10 μL/min. Kinetics were determined at pH 7.4 and pH 6.0 in HBS-EP buffer using a 1:1 Langmuir model (local Rₘₐₓ and constant RI) and double reference subtraction (subtraction of a buffer concentration cycle from the sample concentration cycle and subtraction of a parallel reference flow cell).

[3] = molecular target: T2, Cynomolgus monkey serum albumin (cynomolgus monkey, UniProt A2V9Z4 25-608); assay: as above
T2 construct: also called CSA; cynomolgus albumin
Description: as §1

[4] = molecular target: T1, human serum albumin; assay: SPR (Biacore 3000), biotinylated albumin on CAP chip, pH 7.4
Description: as §1

[5] = molecular target: T2, Cynomolgus monkey serum albumin; assay: as above
Description: as §1

[6] = molecular target: T3, human complement protein C5 (human, UniProt P01031 19-1676); assay: SPR (Biacore), pH 6.0
T3 construct: Native C5 is a two-chain protein made from one precursor; also called hC5; human C5

[7] = molecular target: T4, cynomolgus monkey (cyno) complement protein C5 (cynomolgus monkey, UniProt A0A2K5U1T1 19-1676); assay: SPR (Biacore), pH 6.0
T4 construct: also called cC5; cyno C5

[8] = molecular target: T3, human complement protein C5; assay: SPR (Biacore), pH 7.4
[9] = molecular target: T4, cynomolgus monkey (cyno) complement …; assay: SPR (Biacore), pH 7.4
[10] = molecular target: T3, human complement protein C5; assay: binding kinetics (method not named), pH 6.0
[11] = molecular target: T4, cynomolgus monkey (cyno) complement …; assay: binding kinetics (method not named), pH 6.0
[12] = molecular target: T3, human complement protein C5; assay: binding kinetics (method not named), pH 7.4
[13] = molecular target: T4, cynomolgus monkey (cyno) complement …; assay: binding kinetics (method not named), pH 7.4
[14] = molecular target: T2, Cynomolgus monkey serum albumin; assay: binding kinetics (method not named), pH 6.0
[15] = molecular target: T5, Plasbumin® (UniProt P02768 25-609); assay: binding kinetics (method not named), pH 6.0
[16] = molecular target: T2, Cynomolgus monkey serum albumin; assay: binding kinetics (method not named), pH 7.4
[17] = molecular target: T5, Plasbumin®; assay: binding kinetics (method not named), pH 7.4
[18] = molecular target: T1, human serum albumin; assay: BLI (Octet HTX), VHH-His on Penta-His sensors, 100 nM albumin
Excerpt: (§2) VHH sequences were first analyzed by SDS-PAGE and Coomassie staining to determine approximate concentration relative to a known standard. Supernatant concentrations were then normalized and subjected to biolayer interferometry on an Octet HTX (Pall/ForteBio). Penta-His sensors were exposed to kinetics buffer for 60 seconds to establish baseline measurements. The sensors were then loaded with VHH-His containing supernatants for 300 seconds before a second baseline was established in kinetics buffer over 120 seconds. Tips were then incubated with 100 nM HSA or CSA in kinetics buffer for 600 seconds and dissociation measured over an additional 600 seconds.

[19] = molecular target: T2, Cynomolgus monkey serum albumin; assay: as above
Excerpt: as §2

[20] = molecular target: T3, human complement protein C5; assay: sandwich: biotin-hC5 on CAP chip, test protein, then albumin; column 'Human C5 and Human Albumin'; protein has no anti-C5 domain
Description: (§3) The 26 constructs listed in Table 13 were expressed and the fusion proteins were evaluated for binding to human C5 and albumin (Table 13-Octet binding), generation of aggregates, hydrophobicity (HIC HPLC) and glycosylation (electrospray mass spectrometry). For the octet analysis, biotinylated human C5 was captured on a CAP chip followed by an injection of a test bi-specific molecule. Various concentrations of albumin were subsequently injected. Kinetics were determined at pH 7.4 (Biacore 3000).

[21] = molecular target: T1, human serum albumin; assay: sandwich: biotin-hC5 on CAP chip, test protein, then albumin; column 'Human C5 and Human Albumin'; protein has no anti-albumin domain
Description: as §3

FcRn (receptor)
response difference [1]: 30 RU

B1: HAS040 (VHH)
VHH: QVQLNESGGGMVQAGGSLRLSCAASGRTVSNYAAGWFRQAPGKEREFVAAINWNKTTTYADSVKGRFIISREYAKNTVALQMNSLKPEDTAVYYCAAVFRIVAPKTQYEYDYWGQGTQVTVSS
notes: anti-albumin VHH-His; also called HAS40
Kd [2]: 0.466 nM
koff [2]: 0.000208 s⁻¹
kon [2]: 445000 M⁻¹ s⁻¹
Kd [3]: 0.764 nM
koff [3]: 0.000281 s⁻¹
kon [3]: 368000 M⁻¹ s⁻¹
Kd [4]: 0.341 nM
koff [4]: 0.00044 s⁻¹
kon [4]: 1.29e+06 M⁻¹ s⁻¹
Kd [5]: 0.539 nM
koff [5]: 0.000562 s⁻¹
kon [5]: 1.04e+06 M⁻¹ s⁻¹

B2: HAS041 (VHH)
VHH: QVQLIESGGGLVQAGGSLGLSCAASGRPVSNYAAAWFRQAPGKEREFVAAINWNKTATYADSVKGRFTISRDNAKSTVALQMNSLKPEDTAVYYCAAVFRVVAPKTQYDYDYWGQGTQVTVSS
notes: anti-albumin VHH-His; also called HAS41
Kd [2]: 1.04 nM
koff [2]: 0.000387 s⁻¹
kon [2]: 373000 M⁻¹ s⁻¹
Kd [3]: 2.37 nM
koff [3]: 0.000739 s⁻¹
kon [3]: 312000 M⁻¹ s⁻¹
Kd [4]: 0.461 nM
koff [4]: 0.000566 s⁻¹
kon [4]: 1.23e+06 M⁻¹ s⁻¹
Kd [5]: 1.15 nM
koff [5]: 0.00123 s⁻¹
kon [5]: 1.07e+06 M⁻¹ s⁻¹

B3: CRL0500 (bispecific antibody)
chain: EVQLVESGGGLVKPGGSLRLSCAASGRPVSNYAAAWFRQAPGKEREFVSAINWQKTATYADSVKGRFTISRDNAKNSLYLQMNSLRAEDTAVYYCAAVFRVVAPKTQYDYDYWGQGTLVTVSSGGGGSGGGGSGGGGSEVQLVESGGGLVQPGGSLRLSCAASGRAHSDYAMAWFRQAPGQEREFVAGIGWSGGDTLYADSVRGRFTNSRDNSKNTLYLQMNSLRAEDTAVYYCAARQGQYIYSSMRSDSYDYWGQGTLVTVSS
notes: anti-albumin VHH / (G4S)3 / anti-C5 VHH fusion, purified by Protein A; also called CRL0500 (HSA/C5)
Kd [6]: 0.189 nM
koff [6]: 0.00152 s⁻¹
kon [6]: 8.02e+06 M⁻¹ s⁻¹
Kd [7]: 0.641 nM
koff [7]: 0.0025 s⁻¹
kon [7]: 3.91e+06 M⁻¹ s⁻¹
Kd [8]: 0.233 nM
koff [8]: 0.000672 s⁻¹
kon [8]: 2.88e+06 M⁻¹ s⁻¹
Kd [9]: 0.42 nM
koff [9]: 0.000848 s⁻¹
kon [9]: 2e+06 M⁻¹ s⁻¹
Kd [10]: 0.138 nM
koff [10]: 0.00104 s⁻¹
kon [10]: 7.56e+06 M⁻¹ s⁻¹
Kd [11]: 0.744 nM
koff [11]: 0.0041 s⁻¹
kon [11]: 5.51e+06 M⁻¹ s⁻¹
Kd [12]: 0.0512 nM
koff [12]: 0.000491 s⁻¹
kon [12]: 9.6e+06 M⁻¹ s⁻¹
Kd [13]: 0.219 nM
koff [13]: 0.000818 s⁻¹
kon [13]: 3.74e+06 M⁻¹ s⁻¹
Kd [14]: 2.12 nM
koff [14]: 0.00693 s⁻¹
kon [14]: 3.27e+06 M⁻¹ s⁻¹
Kd [15]: 0.563 nM
koff [15]: 0.002 s⁻¹
kon [15]: 3.55e+06 M⁻¹ s⁻¹
Kd [16]: 3.78 nM
koff [16]: 0.0126 s⁻¹
kon [16]: 3.32e+06 M⁻¹ s⁻¹
Kd [17]: 0.936 nM
koff [17]: 0.00346 s⁻¹
kon [17]: 3.7e+06 M⁻¹ s⁻¹

B4: CRL0952 (bispecific antibody)
chain: B3 chain with S128A, S133A
Kd [10]: 0.155 nM
koff [10]: 0.000907 s⁻¹
kon [10]: 5.84e+06 M⁻¹ s⁻¹
Kd [11]: 0.72 nM
koff [11]: 0.00399 s⁻¹
kon [11]: 5.55e+06 M⁻¹ s⁻¹
Kd [12]: 0.0536 nM
koff [12]: 0.000539 s⁻¹
kon [12]: 1.01e+07 M⁻¹ s⁻¹
Kd [13]: 0.223 nM
koff [13]: 0.000786 s⁻¹
kon [13]: 3.53e+06 M⁻¹ s⁻¹
Kd [14]: 2.49 nM
koff [14]: 0.00755 s⁻¹
kon [14]: 3.03e+06 M⁻¹ s⁻¹
Kd [15]: 0.649 nM
koff [15]: 0.0021 s⁻¹
kon [15]: 3.23e+06 M⁻¹ s⁻¹
Kd [16]: 5.19 nM
koff [16]: 0.0152 s⁻¹
kon [16]: 2.93e+06 M⁻¹ s⁻¹
Kd [17]: 0.901 nM
koff [17]: 0.00359 s⁻¹
kon [17]: 3.98e+06 M⁻¹ s⁻¹

B5: HAS042 (VHH)
VHH: EVQLVESGGGLVKPGGSLRLSCAASGRPVSNYAAAWFRQAPGKEREFVSAINWQKTATYADSVKGRFTISRDNAKNSLYLQMNSLRAEDTAVYYCAAVFRVVAPKTQYDYDYWGQGTLVTVSS
notes: anti-albumin VHH-His
binding result [18]: binds
binding result [19]: binds

B6: TPP-3212 (VHH)
VHH: B5 VHH
notes: Control: no anti-C5 domain (only anti-albumin)
binding result [20]: no binding

B7: CRL0483 (bispecific antibody)
chain: EVQLVESGGGLVQPGGSLRLSCAASGRTFSGILSPYAVGWFRQAPGKGLEFVSTITSGGSAIYTDSVKGRFTISRDNAKDSLYLQMNSLRAEDTAVYYCAVRTRRYGSNLGEVPQENEYGYWGQGTLVTVSSGGGGSGGGGSGGGGSEVQLLESGGGLVQPGGSLRLSCAASGFTFRSFGMSWVRQAPGKGPEWVSSISGSGSDTLYADSVKGRFTISRDNSKNTLYLQMNSLRPEDTAVYYCTIGGSLSRSSQGTLVTVSS
notes: anti-C5 VHH / (G4S)3 / anti-albumin VHH fusion, purified by Protein A; also called CRL0483 (C5/HSA)
Kd [6]: 5.27 nM
koff [6]: 0.000211 s⁻¹
kon [6]: 40000 M⁻¹ s⁻¹
Kd [7]: 1.25 nM
koff [7]: 4.62e-05 s⁻¹
kon [7]: 37100 M⁻¹ s⁻¹
Kd [8]: 1.07 nM
koff [8]: 0.000242 s⁻¹
kon [8]: 225000 M⁻¹ s⁻¹
Kd [9]: 0.24 nM
koff [9]: 2.2e-05 s⁻¹
kon [9]: 91500 M⁻¹ s⁻¹

B8: TPP-3211 (VHH)
VHH: EVQLVESGGGLVQPGGSLRLSCAASGRAHSDYAMAWFRQAPGQEREFVAGIGWSGGDTLYADSVRGRFTNSRDNSKNTLYLQMNSLRAEDTAVYYCAARQGQYIYSSMRSDSYDYWGQGTLVTVSS
notes: Control: no anti-albumin domain (only anti-C5)
binding result [21]: no binding

B9: MSA21 VHH domain (VHH)
VHH: QVQLQESGGGLVQPGGSLRLSCEASGFTFSRFGMTWVRQAPGKGVEWVSGISSLGDSTLYADSVKGRFTISRDNAKNTLYLQMNSLKPEDTAVYYCTIGGSLNPGGQGTQVTVSS
notes: Published comparator (WO 2004/062551 A2); also called ADL021
Kd [2]: 5.46 nM
koff [2]: 0.00181 s⁻¹
kon [2]: 330000 M⁻¹ s⁻¹
Kd [3]: 5.47 nM
koff [3]: 0.00153 s⁻¹
kon [3]: 280000 M⁻¹ s⁻¹
Kd [4]: 3.49 nM
koff [4]: 0.00393 s⁻¹
kon [4]: 1.13e+06 M⁻¹ s⁻¹
Kd [5]: 3.85 nM
koff [5]: 0.00216 s⁻¹
kon [5]: 561000 M⁻¹ s⁻¹

B10: CRL0484 (bispecific antibody)
chain: EVQLVESGGGLVQPGGSLRLSCAASGRTFSGILSPYAVGWFRQAPGKGLEFVSTITSGGSAIYTDSVKGRFTISRDNAKDSLYLQMNSLRAEDTAVYYCAVRTRRYGSNLGEVPQENEYGYWGQGTLVTVSSGGGGSGGGGSGGGGSEVQLVESGGGLVKPGGSLRLSCAASGRPVSNYAAAWFRQAPGKEREFVSAINWQKTATYADSVKGRFTISRDNAKNSLYLQMNSLRAEDTAVYYCAAVFRVVAPKTQYDYDYWGQGTLVTVSS
notes: anti-C5 VHH / (G4S)3 / anti-albumin VHH fusion, purified by Protein A; also called CRL0484 (C5/HSA)
Kd [6]: 0.556 nM
koff [6]: 0.000236 s⁻¹
kon [6]: 425000 M⁻¹ s⁻¹
Kd [7]: 0.128 nM
koff [7]: 6.17e-06 s⁻¹
kon [7]: 48200 M⁻¹ s⁻¹
Kd [8]: 1.1 nM
koff [8]: 7.69e-05 s⁻¹
kon [8]: 70100 M⁻¹ s⁻¹
Kd [9]: 0.24 nM
koff [9]: 2.2e-05 s⁻¹
kon [9]: 91500 M⁻¹ s⁻¹

— patent US20250163138A1 (Alexion, published 2025)
